The values that follow come from US20250011363A1, “OPTIMIZED SHORTENED PEPTIDE THAT BINDS TO ACETYLCHOLINE RECEPTOR, AND USE THEREOF” (SKINMED CO., LTD., priority 2021, published 2025).

The target of the test is acetylcholine receptor. In words: SPR, peptide at 10 uM on acetylcholine receptor. On the technique in general: SPR reads the build-up and loss of mass on a sensor chip optically.

For the molecule KETHR [5mer-674], the Binding affinity (RU) was found to be 22 RU.

Consider RNPGK [5mer-960], for which the Binding affinity (RU) is 14 RU.

RIWKR [5mer-962] had a Binding affinity (RU) of 23 RU.

For KYTDR [5mer-964], the Binding affinity (RU) was 22 RU.

In turn, RKMAR [5mer-953] displayed a Binding affinity (RU) of 23 RU.

KTWEK [5mer-665] came in with a Binding affinity (RU) of 26 RU.

As for RHDWR [5mer-666], the Binding affinity (RU) was 18 RU.

Take RATPR [5mer-663]: the Binding affinity (RU) is 31 RU.

For the molecule KEWNR [5mer-654], the Binding affinity (RU) was 27 RU.

In turn, RKWKR [5mer-958] had a Binding affinity (RU) of 11 RU.

KIHEK [5mer-659] yielded a Binding affinity (RU) of 22 RU.

RYDHK [5mer-978] returned a Binding affinity (RU) of 30 RU.

For the molecule RPHAK [5mer-668], the Binding affinity (RU) amounted to 27 RU.

In turn, RCEMR [5mer-677] gave a Binding affinity (RU) of 15 RU.

KKWGR [5mer-658] displayed a Binding affinity (RU) of 31 RU.

As for RYWAR [5mer-973], the Binding affinity (RU) was 12 RU.

The molecule KMTGK [5mer-971] had a Binding affinity (RU) of 12 RU.

RHMMR [5mer-974] displayed a Binding affinity (RU) of 26 RU.

As for RPSAK [5mer-966], the Binding affinity (RU) is 32 RU.

In the case of RDCHR [5mer-667], the Binding affinity (RU) was found to be 16 RU.

As to KKTVK [5mer-679], the Binding affinity (RU) came to 21 RU.

RTMFR [5mer-676] gave a Binding affinity (RU) of 18 RU.

Regarding KNMIR [5mer-977], the Binding affinity (RU) stood at 16 RU.

For KPCVK [5mer-670], the Binding affinity (RU) amounted to 23 RU.

Turning to KHAPK [5mer-672], the Binding affinity (RU) is 12 RU.

In the case of KIEEK [5mer-662], the Binding affinity (RU) was 28 RU.

Regarding RDCER [5mer-957], the Binding affinity (RU) came out at 30 RU.

On to KMEIR [5mer-965], for which the Binding affinity (RU) turned out to be 30 RU.

Consider RIPHR [5mer-968], for which the Binding affinity (RU) was determined as 11 RU.

RKCIR [5mer-655]: the Binding affinity (RU) came out at 15 RU.

In turn, KIANR [5mer-961] returned a Binding affinity (RU) of 32 RU.

As to RAPNK [5mer-963], the Binding affinity (RU) was 24 RU.

Molecule KYAKR [5mer-972] yielded a Binding affinity (RU) of 14 RU.

Molecule KNADK [5mer-955] displayed a Binding affinity (RU) of 14 RU.

Turning to KFDVK [5mer-660], the Binding affinity (RU) worked out at 11 RU.

The molecule KATGR [5mer-656] came in with a Binding affinity (RU) of 13 RU.

KYMNR [5mer-970] returned a Binding affinity (RU) of 33 RU.

For the molecule KYMGR [5mer-678], the Binding affinity (RU) is 23 RU.

RFAHK [5mer-975] gave a Binding affinity (RU) of 18 RU.

RETNR [5mer-976] returned a Binding affinity (RU) of 16 RU.

In turn, RISPR [5mer-673] had a Binding affinity (RU) of 14 RU.

Take KPNMK [5mer-959]: the Binding affinity (RU) stood at 29 RU.

With RNTVR [5mer-969], the Binding affinity (RU) was determined as 27 RU.

With RKPGR [5mer-675], the Binding affinity (RU) came out at 31 RU.

In turn, KMNAK [5mer-671] returned a Binding affinity (RU) of 21 RU.

In turn, KPTWR [5mer-664] registered a Binding affinity (RU) of 17 RU.

KTEVK [5mer-954] gave a Binding affinity (RU) of 23 RU.

The molecule KPTWK [5mer-956] gave a Binding affinity (RU) of 19 RU.

Take KDNDR [5mer-657]: the Binding affinity (RU) came out at 22 RU.

Turning to KKTHK [5mer-967], the Binding affinity (RU) stood at 26 RU.

The molecule RNPER [5mer-669] registered a Binding affinity (RU) of 24 RU.

As to RCNMK [5mer-661], the Binding affinity (RU) was 30 RU.
